Assay results published in PMC9616769, “Deconstruction of Neurotrypsin Reveals a Multi-factorially Regulated Activity Affecting Myotube Formation and Neuronal Excitability” (Molecular Neurobiology, 2022).

Molecular target: the molecule itself
Assay: SEC-MALS; Protein KW.802.5 (Shodex) column, 1 mL/min, 50 mM TRIS/HCl, 500 mM NaCl, pH 8.0; protein conjugate analysis

B1: AGR-124 (human agrin y4z19, FS9-LG3 domains, Ala893-Pro2068) (domain or fragment)
chain: not shown
modifications: glycans (limited N-linked, presumably O-linked) contributing around 10% of the total mass
notes: human agrin y4z19, 9th FS domain to the last LG domain (FS9-LG3), Ala893-Pro2068; codon-optimized synthetic gene; Tag removed with TEV protease; also called agrin-like AGR-124 substrate; source: SFM-HEK293 suspension cells, transient transfection; purified from the medium (Ni-IMAC, heparin, SEC); not shown: 6xHis, N-terminal, cleaved
B1: binds.
